The values that follow are results of earlier work, collected in publication PMC8573040.

In data set [1] the target is MBP (unfolded) (Escherichia coli) [MBP: P0AEX9].
The target of data set [2] is PhoA (unfolded) (Escherichia coli) [phosphatase: P00634].
The target of a further data set is Im7 (Escherichia coli) (UniProt Q03708).
Sequence of UniProt Q03708 (Q03708 whole entry): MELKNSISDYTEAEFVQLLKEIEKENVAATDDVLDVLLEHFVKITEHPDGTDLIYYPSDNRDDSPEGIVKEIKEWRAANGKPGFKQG

Take SecB (from UniProt P0AG86): the dissociation constant (Kd) (in general, a measure of binding affinity in units of concentration) in data set [1] was 0.05 µM; in data set [2], 0.5 µM. As to Spy (from UniProt P77754), in the data set with Im7 (Escherichia coli), the Kd was 2 µM.
